{"source": "paper PMC8281565", "molecular_target": "histone H3 (UniProt P68431)", "experiment": "co-immunoprecipitation (IP with SV40 antibody, WB, densitometry)", "conditions": "nuclear extracts from transfected HCT116 cells; three different experiments; parent: est. 1.0; read off a plot", "data": [{"substance": "SV40 Large T antigen wild type (from UniProt P03070) S106A; S111A; S112G", "values": [{"measurement": "ratio to parent", "result": 0.61}]}]}
